Experimental findings from US20190032033A1 are described below.

β1AR-84 (minimally thermostabilised turkey β1 adrenergic receptor construct) (turkey), sequence (P07700 other isoform, or with tags, fused parts or gaps): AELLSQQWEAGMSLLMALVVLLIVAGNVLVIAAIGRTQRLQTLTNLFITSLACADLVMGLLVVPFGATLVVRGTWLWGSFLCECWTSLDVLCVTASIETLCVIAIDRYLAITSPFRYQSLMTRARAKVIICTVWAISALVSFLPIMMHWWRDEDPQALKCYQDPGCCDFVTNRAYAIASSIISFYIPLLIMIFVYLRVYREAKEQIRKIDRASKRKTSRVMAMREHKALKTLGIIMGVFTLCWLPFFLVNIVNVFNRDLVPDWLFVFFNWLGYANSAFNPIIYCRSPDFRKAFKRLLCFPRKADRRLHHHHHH
near wild type β1AR construct (β6), sequence (P07700 33-424): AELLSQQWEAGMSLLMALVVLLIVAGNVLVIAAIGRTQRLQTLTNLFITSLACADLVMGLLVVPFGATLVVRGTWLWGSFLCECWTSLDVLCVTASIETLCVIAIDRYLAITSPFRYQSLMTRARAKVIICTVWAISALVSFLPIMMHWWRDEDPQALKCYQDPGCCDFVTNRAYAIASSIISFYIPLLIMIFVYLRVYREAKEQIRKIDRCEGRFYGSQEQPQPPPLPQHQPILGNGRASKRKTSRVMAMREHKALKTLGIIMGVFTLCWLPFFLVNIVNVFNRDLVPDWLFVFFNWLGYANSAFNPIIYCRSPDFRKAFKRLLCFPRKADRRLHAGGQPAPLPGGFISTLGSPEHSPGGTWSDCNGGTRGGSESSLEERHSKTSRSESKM

One assay addresses β1AR-84 (minimally thermostabilised turkey β1 adrenergic receptor construct) (turkey) (UniProt P07700). Nature of the assay: cell-based or functional assay.
Turning to Nb80 (VHH), the fold shift of isoprenaline Ki of β1AR-84 was 93 fold; the isoprenaline Ki of DDM-solubilised β1AR-84 (alone […] µM) turned out to be 0.083 µM; the isoprenaline Ki of β1AR-84, 20 °C (alone […] nM) turned out to be 28 nM.
“Gs-Nb35 (non-lipidated heterotrimeric Gs with nanobody Nb35) (from UniProt P62873 2-340; P59768 2-71)”: the fold shift of isoprenaline Ki of β1AR-84 is 163 fold; the isoprenaline Ki of DDM-solubilised β1AR-84 (alone […] µM) stood at 0.023 µM; the isoprenaline Ki of β1AR-84, 20 °C (alone […] nM) is 16 nM.
As to “non-lipidated heterotrimeric Gs (Gαsβ1γ2) (from UniProt P62873 2-340; P59768 2-71)”, the fold shift of isoprenaline Ki of β1AR-84 was determined as 9.6 fold; the isoprenaline Ki of β1AR-84, 4 °C (alone […] nM) is 419 nM; the isoprenaline Ki of β1AR-84, 20 °C (alone […] nM) was found to be 271 nM; the isoprenaline Ki of β1AR-84 with 0.25 mM GTPγS (alone 3.0 µM) was 2700 nM.

In another assay the target is β1AR-WT (wild type-like turkey β1 adrenergic receptor construct) (turkey) (UniProt P07700). Nature of the assay: cell-based or functional assay.
β1AR-WT (wild type-like turkey β1 adrenergic receptor construct) (turkey), sequence (P07700 other isoform, or with tags, fused parts or gaps limits assumed): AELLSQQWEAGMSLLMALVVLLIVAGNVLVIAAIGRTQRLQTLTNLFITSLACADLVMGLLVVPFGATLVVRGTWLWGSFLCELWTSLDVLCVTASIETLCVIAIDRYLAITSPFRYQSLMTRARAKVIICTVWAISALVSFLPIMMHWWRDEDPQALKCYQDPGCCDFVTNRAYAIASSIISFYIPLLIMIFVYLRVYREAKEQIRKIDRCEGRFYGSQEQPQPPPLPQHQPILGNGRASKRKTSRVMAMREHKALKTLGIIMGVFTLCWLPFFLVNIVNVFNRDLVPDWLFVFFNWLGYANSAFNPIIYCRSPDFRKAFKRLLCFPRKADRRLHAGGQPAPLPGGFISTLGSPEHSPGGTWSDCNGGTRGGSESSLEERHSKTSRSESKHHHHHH
Consider Nb80 (VHH), for which the apparent Tm of β1AR-WT complex in DDM (receptor alone 25.9 °C) was 32 °C, the apparent Tm of β1AR-WT complex in decylmaltoside (receptor alone 20.4 °C) stood at 28.6 °C, the apparent Tm of β1AR-WT complex in nonylglucoside (uncoupled receptor did not survive) turned out to be 16.7 °C and the apparent Tm of β1AR-WT complex in octylglucoside (uncoupled receptor did not survive) came out at 14.3 °C. For the same substance, the fold shift of isoprenaline Ki of β1AR-WT is 6.9 fold, the isoprenaline Ki of membrane-embedded β1AR-WT (alone 40 nM) stood at 5.8 nM and the norepinephrine Ki of β1AR-WT (alone 158 nM) turned out to be 0.7 nM.
In the case of “Gs-Nb35 (non-lipidated heterotrimeric Gs with nanobody Nb35) (from UniProt P62873 2-340; P59768 2-71)”, the apparent Tm of β1AR-WT complex in DDM (receptor alone 25.9 °C) came out at 35.8 °C, the apparent Tm of β1AR-WT complex in decylmaltoside (receptor alone 20.4 °C) worked out at 31.1 °C, the apparent Tm of β1AR-WT complex in nonylglucoside (uncoupled receptor did not survive) was 19 °C and the apparent Tm of β1AR-WT complex in octylglucoside (uncoupled receptor did not survive) was 13.6 °C. The fold shift of isoprenaline Ki of β1AR-WT was 5.9 fold, the isoprenaline Ki of membrane-embedded β1AR-WT (alone 40 nM) was 6.8 nM and the norepinephrine Ki of β1AR-WT (alone 158 nM) was determined as 0.36 nM.
For “non-lipidated heterotrimeric Gs (Gαsβ1γ2) (from UniProt P62873 2-340; P59768 2-71)”, the fold shift of isoprenaline Ki of β1AR-WT amounted to 2.4 fold and the isoprenaline Ki of membrane-embedded β1AR-WT (alone 40 nM) came out at 17 nM.

A further assay has as its target near wild type β1AR construct (β6) (UniProt P07700). In words: cell-based or functional assay.
The substance Nb80 (VHH) had a fold increase of isoprenaline affinity of the near wild-type β1AR of 3.5 fold and an isoprenaline IC50 of β6 (alone […] nM) of 51 nM.

For the next assay, the target named is wild type A2AR in HEK293 cell membranes (UniProt P29274). Nature of the assay: cell-based or functional assay.
wild type A2AR in HEK293 cell membranes, sequence (P29274 whole entry): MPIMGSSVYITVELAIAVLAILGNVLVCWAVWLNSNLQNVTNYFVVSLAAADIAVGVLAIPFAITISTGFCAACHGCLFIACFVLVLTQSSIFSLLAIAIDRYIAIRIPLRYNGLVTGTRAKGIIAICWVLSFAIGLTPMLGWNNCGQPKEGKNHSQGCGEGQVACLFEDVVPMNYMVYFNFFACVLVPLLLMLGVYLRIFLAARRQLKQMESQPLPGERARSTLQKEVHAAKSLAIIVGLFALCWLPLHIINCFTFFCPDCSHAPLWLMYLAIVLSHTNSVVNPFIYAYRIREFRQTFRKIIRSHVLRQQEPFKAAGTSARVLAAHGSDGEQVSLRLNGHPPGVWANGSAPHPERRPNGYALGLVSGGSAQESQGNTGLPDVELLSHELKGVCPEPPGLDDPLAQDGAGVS
“Gs-Nb35 (non-lipidated heterotrimeric Gs with nanobody Nb35) (from UniProt P62873 2-340; P59768 2-71)” displayed an NECA Ki of A2AR in HEK293 membranes, 100 mM NaCl (alone 4.6 µM) of 340 nM.

A further assay concerns the target β84 (minimally thermostabilised β1AR construct of Example 2) (UniProt P07700). In words: cell-based or functional assay.
“Gαs GTPase domain E50N (from UniProt P63092 45-394)” showed an isoprenaline IC50 of β84, 4 °C of 55 nM and an isoprenaline IC50 of β84, 20 °C of 1100 nM.
The substance “Gαs GTPase domain S54N (from UniProt P63092 45-394)” displayed an isoprenaline IC50 of β84, 4 °C of 462 nM.
The substance “Gαs GTPase domain G226A (from UniProt P63092 45-394)” came in with an isoprenaline IC50 of β84, 4 °C of 127 nM and an isoprenaline IC50 of β84, 20 °C of 1200 nM.
On the same counts, the results for “Gαs GTPase domain G49D/E50N (from UniProt P63092 45-394)” are 44 nM and 364 nM.
With “Gαs GTPase domain D295N (from UniProt P63092 45-394)”, the isoprenaline IC50 of β84, 4 °C worked out at 2400 nM.
Same read-out and setting: with “Gαs GTPase domain parental construct (Example 2) (from UniProt P63092 45-394)” the figure was 136 nM.
Consider “Gαs GTPase domain R356D (from UniProt P63092 45-394)”, for which the isoprenaline IC50 of β84, 4 °C turned out to be 161 nM and the isoprenaline IC50 of β84, 20 °C turned out to be 3300 nM.
The like results for “Gαs GTPase domain R199D (from UniProt P63092 45-394)” were, in that order, 109 nM and 1800 nM.
The substance Gαs GTPase domain Δ255-262/G linker had an isoprenaline IC50 of β84, 4 °C of 1300 nM.
Regarding “Gαs GTPase domain A48D (from UniProt P63092 45-394)”, the isoprenaline IC50 of β84, 4 °C is 185 nM and the isoprenaline IC50 of β84, 20 °C was determined as 1800 nM.
The substance “Gαs GTPase domain Y37R/R42D (from UniProt P63092 45-394)” came in with an isoprenaline IC50 of β84, 4 °C of 2300 nM.
“Gαs GTPase domain L272E (from UniProt P63092 45-394)” returned an isoprenaline IC50 of β84, 4 °C of 42 nM and an isoprenaline IC50 of β84, 20 °C of 110 nM.
“Gαs GTPase domain L270N/I348N (from UniProt P63092 45-394)” yielded an isoprenaline IC50 of β84, 4 °C of 4300 nM.
Turning to “Gαs GTPase domain V36D/N218K/T40D (from UniProt P63092 45-394)”, the isoprenaline IC50 of β84, 4 °C amounted to 427 nM and the isoprenaline IC50 of β84, 20 °C came out at 3200 nM.
On the same counts, the results for “Gαs GTPase domain N279D/Q235K (from UniProt P63092 45-394)” are 102 nM and 2000 nM.
“Gαs GTPase domain F208N (from UniProt P63092 45-394)” yielded an isoprenaline IC50 of β84, 4 °C of 250 nM and an isoprenaline IC50 of β84, 20 °C of 1300 nM.
The like results for “Gαs GTPase domain C237E (from UniProt P63092 45-394)” were, in that order, 93 nM and 1900 nM.
On the same counts, the results for “Gαs GTPase domain V36D/N218K/T40A (from UniProt P63092 45-394)” are 551 nM and 2400 nM.
As to “Gαs GTPase domain A249D (from UniProt P63092 45-394)”, the isoprenaline IC50 of β84, 4 °C was found to be 15 nM and the isoprenaline IC50 of β84, 20 °C worked out at 53 nM.
In the case of Nb80 (VHH), the isoprenaline IC50 of β84 (alone […] µM) stood at 0.016 µM.
In the case of “Gαs GTPase domain Y37D (from UniProt P63092 45-394)”, the isoprenaline IC50 of β84, 4 °C was found to be 81 nM and the isoprenaline IC50 of β84, 20 °C is 2000 nM.
On the same counts, the results for “Gαs GTPase domain S286C/I382C (from UniProt P63092 45-394)” are 4200 nM and 7000 nM.
Take “Gαs GTPase domain H41V (from UniProt P63092 45-394)”: the isoprenaline IC50 of β84, 4 °C was 77 nM and the isoprenaline IC50 of β84, 20 °C turned out to be 737 nM.
“Gαs GTPase domain R199K (from UniProt P63092 45-394)” had an isoprenaline IC50 of β84, 4 °C of 108 nM and an isoprenaline IC50 of β84, 20 °C of 1900 nM.
On the same counts, the results for “Gαs GTPase domain G49D (from UniProt P63092 45-394)” are 37 nM and 428 nM.
On the same counts, the results for “Gαs GTPase domain S252E (from UniProt P63092 45-394)” are 57 nM and 575 nM.
On the same counts, the results for “Gαs GTPase domain H41M (from UniProt P63092 45-394)” are 307 nM and 1800 nM.
Consider Gαs GTPase domain Δ227-230/GG linker, for which the isoprenaline IC50 of β84, 4 °C was found to be 34 nM and the isoprenaline IC50 of β84, 20 °C worked out at 799 nM.
As for “Gαs GTPase domain S275D (from UniProt P63092 45-394)”, the isoprenaline IC50 of β84, 4 °C amounted to 136 nM and the isoprenaline IC50 of β84, 20 °C turned out to be 2000 nM.
On the same counts, the results for “Gαs GTPase domain S252D (from UniProt P63092 45-394)” are 21 nM and 142 nM.
“Gαs GTPase domain A249E (from UniProt P63092 45-394)”: the isoprenaline IC50 of β84, 4 °C is 104 nM and the isoprenaline IC50 of β84, 20 °C was found to be 582 nM.
The like results for “Gαs GTPase domain H41I (from UniProt P63092 45-394)” were, in that order, 58 nM and 589 nM.
As to “isolated GTPase domain of Gαs (Example 2, FIG. 14)”, the isoprenaline IC50 of β84, 4 °C (alone […] µM) worked out at 0.253 µM and the isoprenaline IC50 of β84, 20 °C (alone […] µM) was 3.4 µM.
Take “Gαs GTPase domain H41L (from UniProt P63092 45-394)”: the isoprenaline IC50 of β84, 4 °C turned out to be 285 nM and the isoprenaline IC50 of β84, 20 °C came to 3900 nM.
In the case of “Gαs GTPase domain R356S (from UniProt P63092 45-394)”, the isoprenaline IC50 of β84, 4 °C came to 229 nM and the isoprenaline IC50 of β84, 20 °C stood at 2800 nM.
The like results for “Gαs GTPase domain W234A/F238A (from UniProt P63092 45-394)” were, in that order, 584 nM and 4000 nM.
On the same counts, the results for “Gαs GTPase domain R201A (from UniProt P63092 45-394)” are 46 nM and 2200 nM.
Take “Gαs GTPase domain A249S (from UniProt P63092 45-394)”: the isoprenaline IC50 of β84, 4 °C came out at 146 nM and the isoprenaline IC50 of β84, 20 °C is 1600 nM.
As for “Gs-Nb35 (non-lipidated heterotrimeric Gs with nanobody Nb35) (from UniProt P62873 2-340; P59768 2-71)”, the isoprenaline IC50 of β84 (alone […] µM) came out at 0.068 µM.
Consider “GTPase domain with βγ-dimer and Nb35 (from UniProt P62873 2-340; P59768 2-71)”, for which the isoprenaline IC50 of β84, 20 °C (alone […] µM) was 0.206 µM.
In the case of Gαs GTPase domain Δ254-263/Y253P, the isoprenaline IC50 of β84, 4 °C turned out to be 23 nM and the isoprenaline IC50 of β84, 20 °C worked out at 142 nM.
The like results for “Gαs GTPase domain N279E/I235K (from UniProt P63092 45-394)” were, in that order, 1200 nM and 2800 nM.
With “non-lipidated heterotrimeric Gs (Gαsβ1γ2) (from UniProt P62873 2-340; P59768 2-71)”, the isoprenaline IC50 of β84 (alone […] µM) amounted to 1.4 µM.
Regarding “Gαs GTPase domain D240G (from UniProt P63092 45-394)”, the isoprenaline IC50 of β84, 4 °C came to 510 nM and the isoprenaline IC50 of β84, 20 °C stood at 4400 nM.
In turn, “Gαs GTPase domain V36D/N218K (from UniProt P63092 45-394)” yielded an isoprenaline IC50 of β84, 4 °C of 115 nM.
Take Gαs GTPase domain Δ254-263: the isoprenaline IC50 of β84, 4 °C came to 31 nM and the isoprenaline IC50 of β84, 20 °C was determined as 30 nM.
The like results for “Gαs GTPase domain L272D (from UniProt P63092 45-394)” were, in that order, 10 nM and 464 nM.
